This is an account of results in US20010055591A1 (WISYS TECHNOLOGY FOUNDATION, published 2001).

Changes are numbered by the printed parent chain. In names and notes the source's numbering stands.

In series [1] the target is T1, thrombin (free thrombin) (human, UniProt P00734 328-622). The experiment in a line: discontinuous thrombin inhibition assay, chromogenic substrate; no TM. Here is the method:
(§1) Serine Protease Inhibition Assays. The rates of inhibition of the serine proteases thrombin, factor Xa and APC in the presence and absence of heparin were measured using discontinuous assays under pseudo-first order rate conditions as described previously (Phillips et al., 1994; Rezaie et al., 1995). Protein was diluted in TBS buffer containing 0.1 mg/ml BSA, 0.1% PEG 8000, and 0.01% azide to a final reaction volume of 50 μl. […] Substrates used were Spectrozyme TH (SpTH) for thrombin and trypsin, PCA (SpPCA) for APC, and FXa (SpFXa) for Factor Xa (American Diagnostica, Greenwich, Conn.). Absorbances were determined using a SpectraMax Plus plate reader (Molecular Devices, Sunnyvale, Calif.). Absorbance is directly related to residual protease activity. In assays containing heparin, 1 mg/ml Polybrene was added to the substrate to block further heparin binding during substrate development. For heparin template curve data, varying concentrations (0-1000 μg/ml) of unfractionated heparin were added and proteins were diluted in HNPN buffer. For remaining heparin assays, the resulting optimal heparin concentration (5 μg/ml) was used. […] TM was either purified rabbit TM (RTM) or recombinant 4-6 TM (provided by Dr. Alireza Rezaie). Second-order rate constants of thrombin inhibition were determined using the following equation: […]
(§2) Inhibition in the presence of TM.

The target in series [2] is T2, thrombin bound to 4-6 TM (recombinant EGF repeats 4-6 of thrombomodulin) (human, UniProt P00734 328-622; P07204 363-483). Description: ratio of κ2 with 4-6 TM to κ2 on free thrombin. Here is the method: as §1, with “Protein” for “Serine Protease Inhibition Assays. The rates of inhibition of the serine proteases thrombin, factor Xa and APC in the presence and absence of heparin were measured using discontinuous assays under pseudo-first order rate conditions as described previously (Phillips et al., 1994; Rezaie et al., 1995). Protein”
as §2

The target of series [3] is T1, thrombin (free thrombin). The experiment in a line: ratio of κ2 with heparin to κ2 without heparin. Here is the method:
as §1
(§3) Inhibition in the presence of heparin. Thrombin inhibition is accelerated (300- to 1000-fold) in the presence of heparin (Olson et al., 1992). […] Changes in heparin binding domains may alter the concentration of heparin required for the fastest rate of thrombin inhibition.

The target of a further series is T3, Factor Xa (human, UniProt P00742 41-179; P00742 235-488, limits assumed).
T3 construct: also called FXa
T3 sequence (P00742 41-179 limits assumed, form in doubt, chain 1 of 2): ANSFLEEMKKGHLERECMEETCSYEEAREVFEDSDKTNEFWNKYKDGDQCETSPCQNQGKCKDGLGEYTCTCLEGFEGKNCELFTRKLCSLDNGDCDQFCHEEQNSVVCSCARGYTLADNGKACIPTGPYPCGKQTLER
T3 sequence (P00742 235-488 limits assumed, form in doubt, chain 2 of 2): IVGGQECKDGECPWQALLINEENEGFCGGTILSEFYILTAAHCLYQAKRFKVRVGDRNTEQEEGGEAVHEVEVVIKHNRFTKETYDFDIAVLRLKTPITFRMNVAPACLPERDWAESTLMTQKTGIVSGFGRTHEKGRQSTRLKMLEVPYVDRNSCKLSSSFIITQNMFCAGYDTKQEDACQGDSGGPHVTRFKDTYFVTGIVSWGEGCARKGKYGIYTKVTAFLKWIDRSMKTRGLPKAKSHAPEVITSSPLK
The experiment in a line: discontinuous Factor Xa inhibition assay, chromogenic substrate SpFXa. Here is the method: as §1

The target in series [4] is T1, thrombin (free thrombin). Description: discontinuous thrombin inhibition assay, chromogenic substrate; no heparin. The protocol: as §1, §3
The next series concerns the target T4, trypsin.
T4 construct: The source of the trypsin is doubtful, so see recheck
The experiment in a line: discontinuous trypsin inhibition assay, chromogenic substrate SpTH. Here is the method: as §1
Trypsin inhibition assays were performed to examine the overall activity of each mutant protein.

In series [5] the target is T2, thrombin bound to 4-6 TM (recombinant …). Description: discontinuous thrombin inhibition assay, chromogenic substrate; thrombin with 4-6 TM. Here is the method: as §1, §2
Series [6] deals with T1, thrombin (free thrombin). Description: discontinuous thrombin inhibition assay, chromogenic substrate; with 5 µg/ml heparin. Here is the method:
as §1, §3

In series [7] the target is T2, thrombin bound to 4-6 TM (recombinant …). Description: ratio of κ2 with 4-6 TM to κ2 on free thrombin. The source holds these as a separate data set.
Series [8] addresses thrombin bound to rabbit thrombomodulin (RTM) (human; rabbit, UniProt P00734 328-622; Q8HZ48 21-576). Description: ratio of κ2 with RTM to κ2 on free thrombin. Here is the method:
as §1

B1: AT-P3R (antithrombin with the PCI reactive site loop and an arginine at P3) (other)
chain: HGSPVDICTAKPRDIPMNPMCIYRSPEKKATEDEGSEQKIPEATNRRVWELSKANSRFATTFYQHLADSKNDNDNIFLSPLSISTAFAMTKLGACNDTLQQLMEVFKFDTISEKTSDQIHFFFAKLNCRLYRKANKSSKLVSANRLFGDKSLTFNETYQDISELVYGAKLQPLDFKENAEQSRAAINKWVSNKTEGRITDVIPSEAINELTVLVLVNTIYFKGLWKSKFSPENTRKELFYKADGESCSASMMYQEGKFRYRRVAEGTQVLELPFKGDDITMVLILPKPEKSLAKVEKELTPEVLQEWLDELEEMMLVVHMPRFRIEDGFSLKEQLQDMGLVDLFSPEKSKLPGIVAEGRDDLYVSDAFHKAFLEVNEEGSEAAASTAVVIRFRSARPNRVTFKANRPFLVFIREVPLNTIIFMGRVANPCVK
notes: I derived them from P1′ = serine 394 of mature antithrombin
For B1, the “second-order rate constant (κ2) of inhibition” value worked out at 2000 M⁻¹ s⁻¹ in the series with thrombin (free thrombin) [1]; 260 M⁻¹ s⁻¹ in the series with Factor Xa; 4800 M⁻¹ s⁻¹ with thrombin (free thrombin) [4]; 10000 M⁻¹ s⁻¹ with trypsin; 1200 M⁻¹ s⁻¹ in series [5]; 1.3e+06 M⁻¹ s⁻¹ in the series with thrombin (free thrombin) [6]. For the same molecule, in series [2], the “Ratio (+/-) of κ2 with and without 4-6 TM” value came out at 0.6 fold. In the series with thrombin (free thrombin) [3], the “Ratio (+/-) of κ2 with and without heparin” value came to 263 fold.

B2: AT-rsl (antithrombin with the reactive site loop sequence of PCI) (other, Homo sapiens, UniProt P01008 33-464, looked up)
chain: B1 chain with R391T
notes: mature; I derived them from P1′ = serine 394 of mature antithrombin; also called AT-rs1; Reactive site loop mutant
Regarding B2, the “second-order rate constant (κ2) of inhibition” value is 3400 M⁻¹ s⁻¹ with thrombin (free thrombin) [1]; 3000 M⁻¹ s⁻¹ in the series with thrombin (free thrombin) [4]; 6100 M⁻¹ s⁻¹ with trypsin; 2500 M⁻¹ s⁻¹ in series [5]; 630000 M⁻¹ s⁻¹ with thrombin (free thrombin) [6]. The “Ratio (+/-) of κ2 with and without 4-6 TM” value in [2] stood at 0.7 fold. Further, the “Ratio (+/-) of κ2 with and without heparin” value with thrombin (free thrombin) [3] was determined as 210 fold.

B3: AT-pos (antithrombin H-helix mutant D309K, E310K, E312K, E313K) (other, Homo sapiens, UniProt P01008 33-464, looked up)
chain: B1 chain with D309K, E310K, E312K, E313K, R391A, F392G, A395L, R396N
notes: mature; The residue numbers appear to count on mature antithrombin; also called H-helix mutant Poly-K
On to B3, for which the “Ratio to no TM (4-6 TM)” value in series [7] is 3 fold. In addition, in series [8], the “Ratio to no TM (RTM)” value was 90.7 fold. Further, the “second-order rate constant (κ2) of inhibition” value in the series with thrombin (free thrombin) [1] turned out to be 5500 M⁻¹ s⁻¹; with Factor Xa it was 1000 M⁻¹ s⁻¹; with thrombin (free thrombin) [4] it was 5300 M⁻¹ s⁻¹; with trypsin it was 9500 M⁻¹ s⁻¹; in series [5], 20000 M⁻¹ s⁻¹; in the series with thrombin (free thrombin) [6], 180000 M⁻¹ s⁻¹. The “Ratio (+/-) of κ2 with and without 4-6 TM” value in [2] worked out at 3.7 fold. In addition, in the series with thrombin (free thrombin) [3], the “Ratio (+/-) of κ2 with and without heparin” value was determined as 34 fold.
